Where no end group is shown, it is not given here.
B1: LptM^His (natural protein, Escherichia coli, UniProt P0ADN6 20-67, looked up)
chain: CGLKGPLYFPPADKNAPPPTKPVETQTQSTVPDKNDRATGDGPSQVNY
modifications: also: tri-acylated
notes: LptM (formerly YifL), E. coli, UniProt P0ADN6; mature and tri-acylated lipoprotein (theoretical mass with the tag 6,988 Da); also called C-terminally poly-histidine tagged version of E. coli LptM; YifL; source: E. coli BW25113 ΔlptM, overproduced from pLptDEM^His or pLptM^His; DDM-solubilized envelope fraction; not shown: poly-histidine, C-terminal, kept
B2: LptE (natural protein)
chain: not shown
modifications: tri-acylated (mature and tri-acylated protein)
notes: LptE, E. coli, UniProt P0ADC1; mature and tri-acylated lipoprotein (theoretical mass 20,248 Da); Untagged; source: E. coli BW25113 ΔlptM, overproduced from pLptDEM^His; DDM-solubilized envelope fraction
B3: LptD (natural protein, Escherichia coli, UniProt P31554 25-784, looked up)
chain: ADLASQCMLGVPSYDRPLVQGDTNDLPVTINADHAKGDYPDDAVFTGSVDIMQGNSRLQADEVQLHQKEAPGQPEPVRTVDALGNVHYDDNQVILKGPKGWANLNTKDTNVWEGDYQMVGRQGRGKADLMKQRGENRYTILDNGSFTSCLPGSDTWSVVGSEIIHDREEQVAEIWNARFKVGPVPIFYSPYLQLPVGDKRRSGFLIPNAKYTTTNYFEFYLPYYWNIAPNMDATITPHYMHRRGNIMWENEFRYLSQAGAGLMELDYLPSDKVYEDEHPNDDSSRRWLFYWNHSGVMDQVWRFNVDYTKVSDPSYFNDFDNKYGSSTDGYATQKFSVGYAVQNFNATVSTKQFQVFSEQNTSSYSAEPQLDVNYYQNDVGPFDTRIYGQAVHFVNTRDDMPEATRVHLEPTINLPLSNNWGSINTEAKLLATHYQQTNLDWYNSRNTTKLDESVNRVMPQFKVDGKMVFERDMEMLAPGYTQTLEPRAQYLYVPYRDQSDIYNYDSSLLQSDYSGLFRDRTYGGLDRIASANQVTTGVTSRIYDDAAVERFNISVGQIYYFTESRTGDDNITWENDDKTGSLVWAGDTYWRISERWGLRGGIQYDTRLDNVATSNSSIEYRRDEDRLVQLNYRYASPEYIQATLPKYYSTAEQYKNGISQVGAVASWPIADRWSIVGAYYYDTNANKQADSMLGVQYSSCCYAIRVGYERKLNGWDNDKQHAVYDNAIGFNIELRGLSSNYGLGTQEMLRSNILPYQNTL
notes: LptD, E. coli, UniProt P31554; mature protein (theoretical mass 87,080 Da); Untagged; Cysteines at 31, 173, 724 and 725 (C1 to C4); the mature oxidized form LptD^Ox has the disulfides C1-C3 and C2-C4; samples from ΔlptM cells also hold partially oxidized forms; also called LptD^CCCC; wild-type LptD; source: E. coli BW25113 (wild-type or ΔlptM), overproduced from pLptDE^His or pLptDEM^His; …
B4: LptE^His (natural protein)
chain: not shown
modifications: tri-acylated (mature and tri-acylated protein)
notes: LptE, E. coli, UniProt P0ADC1; mature and tri-acylated lipoprotein (theoretical mass with the tag 21,348 Da); also called C-terminally poly-histidine tagged variant of LptE; source: E. coli BW25113 (wild-type or ΔlptM), overproduced from pLptDE^His or pLptDME^His; DDM-solubilized envelope fraction; not shown: poly-histidine, C-terminal, kept

Tests used:
LptD [1] = biological target: B3; experiment: HDX-MS; LPS translocon produced in the presence or absence of LptM, purified in detergent micelles; 20 μM protein diluted in deuterated buffer (20 mM MES pH 6.5, 200 mM NaCl), 20 °C, 0.5 to 30 min; pepsin digestion; settings: both partners purified
LptE [2] = biological target: B2; experiment: as above; settings: both partners purified
LptM^His = biological target: B1; experiment: native MS; co-expressed and Ni-affinity co-purified complexes LptDE^His and LptDEM^His, ~10-20 μM in 200 mM ammonium acetate pH 7.4, 0.03% DDM; nano-electrospray, positive ion mode; settings: both partners purified
LptE [3] = biological target: B2; experiment: as above; settings: both partners purified
LptD [4] = biological target: B3; experiment: pull-down; Ni-affinity purification of LptE^His from the DDM-solubilized envelope fraction of wild-type (lptM^+) cells with pLptDE^His; Ni-NTA 2 h at 4 °C, 50 mM Tris-HCl pH 8, 150 mM NaCl, DDM; SDS-PAGE or BN-PAGE, Coomassie staining or Western blotting; settings: partners not purified

B1: binds (LptD [1]); binds (LptE [2]).

With B2 the “stoichiometry N” value (LptM^His) was 1.

With B3 the “stoichiometry N” value (LptM^His) was 1 and the “stoichiometry N” value (LptE [3]) was 1.

B4: binds (LptD [4]).

— article PMC10567701 (Nature Communications, 2023)
